Series [1] concerns the molecule itself. Put plainly: crystal structure; PfCelTOS with 4h12 Fab at a ratio of 1.5:1, complex purified by SEC; crystals at 18 °C, 0.2 M lithium acetate, 21% PEG 3350; 3.5 Å. (SEC sorts molecules by how far they enter the pores of the column.)
The target in series [2] is T1, P. vivax CelTOS (cell-traversal protein for ookinetes and sporozoites), Sal-1, residues L36-D196 (Plasmodium vivax Sal-1).
T1 construct: PvCelTOS, P. vivax Sal-1, PVX_123510, residues L36-D196; also called PvCelTOS; source: E. coli BL21(DE3), pET28, purified (nickel resin, Superdex 200 increase)
T1 chain: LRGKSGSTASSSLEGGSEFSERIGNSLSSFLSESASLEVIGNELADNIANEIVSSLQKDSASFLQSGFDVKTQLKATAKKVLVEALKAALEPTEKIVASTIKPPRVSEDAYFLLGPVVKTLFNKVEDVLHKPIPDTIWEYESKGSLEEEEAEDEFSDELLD
Put plainly: BLI; mAb immobilised on anti-mouse IgG Fc capture (AMC) biosensors, 25 °C; CelTOS serially diluted in HBS-EP+ buffer as analyte; OctetRed96e; global fit, 1:1 model; each biological replicate the average of three repeats. The note with it: both partners purified. (Biolayer interferometry detects binding as a change in optical thickness at a sensor tip.)

Series [3] addresses T2, P. falciparum CelTOS (cell-traversal protein for ookinetes and sporozoites), 3D7, residues F25-D182 (Plasmodium falciparum 3D7).
T2 construct: PfCelTOS, P. falciparum 3D7, PF3D7_1216600, residues F25-D182; also called PfCelTOS; source: E. coli BL21(DE3), pET28, purified (nickel resin, Superdex 200 increase)
T2 chain: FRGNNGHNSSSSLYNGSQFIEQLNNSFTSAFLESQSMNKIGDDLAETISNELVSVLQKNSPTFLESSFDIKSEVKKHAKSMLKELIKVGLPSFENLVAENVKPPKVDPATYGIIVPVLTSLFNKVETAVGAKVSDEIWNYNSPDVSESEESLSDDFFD
The series is described as above. The note with it: both partners purified.

Series [4] concerns the target T3, P. falciparum CelTOS (3D7, PF3D7_1216600, residue F25-D182) (P. falciparum, UniProt Q8I5P1).
T3 construct: Cell-traversal protein for ookinetes and sporozoites (CelTOS), P. falciparum 3D7, PF3D7_1216600, residues F25-D182; Only S60-S116 are ordered in PDB 8UKH; also called PfCelTOS; cell-traversal protein for ookinetes and sporozoites; source: E. coli BL21(DE3), pET28, purified (Ni resin, Superdex 200 increase)
The series can be described thus: BLI; mAb immobilised on anti-mouse IgG Fc capture (AMC) biosensors at 25 °C; CelTOS serially diluted in HBS-EP+ buffer; global fit, 1:1 model. The conditions noted are these: both partners purified.

Series [5] has as its target T4, P. vivax CelTOS (Sal-1, PVX_123510, residue L36-D196) (P. vivax, UniProt A5JZX5).
T4 construct: Cell-traversal protein for ookinetes and sporozoites (CelTOS), P. vivax Sal-1, PVX_123510, residues L36-D196; also called PvCelTOS; cell-traversal protein for ookinetes and sporozoites; source: E. coli BL21(DE3), pET28, purified (Ni resin, Superdex 200 increase)
The series is described as above. The note with it: both partners purified.

Series [6] deals with the molecule itself. Put plainly: crystal structure; PvCelTOS with 7g7 Fab at a 1:1 ratio, complex purified by SEC; crystals at 17 °C, 0.1 M sodium acetate pH 4.5, 15% PEG 4000; 3.2 Å.

Several values for one entry are separate records, joined by “and”; a condition that tells them apart may be missing. Identical values can stand only once.

The record followed here is article PMC11362571, “Multistage protective anti-CelTOS monoclonal antibodies with cross-species sterile protection against malaria” (Nature Communications, 2024).

Usually stoichiometry N stands for the number of molecules, sites or subunits per partner or assembly. In general, Kd refers to the constant that tells how readily two partners part at equilibrium. Usually koff stands for the first-order rate constant of dissociation. By kon is commonly meant the rate constant with which the complex forms.

B1: P. falciparum CelTOS (3D7, PF3D7_1216600, residue F25-D182) (natural protein, UniProt Q8I5P1 25-182, looked up)
chain: T2 chain
notes: Cell-traversal protein for ookinetes and sporozoites (CelTOS), P. falciparum 3D7, PF3D7_1216600, residues F25-D182; Only S60-S116 are ordered in PDB 8UKH; also called PfCelTOS; cell-traversal protein for ookinetes and sporozoites; source: E. coli BL21(DE3), pET28, purified (Ni resin, Superdex 200 increase)
Consider B1, for which the “stoichiometry N” value in series [1] was determined as 2.

B2: anti-CelTOS monoclonal antibody 4h12 (mouse IgG1) (antibody, V domains shown)
VH: QVQLQQSGPELVKPGASVKISCKASGYALSSSWLNWVKQRPGQGLEWIGRIFPGDGDTNYNGKFKGKATLTADKSSSTAYLQLSSLTSVDSAVYFCARGGTVVFDYWGQGTTLTVSS
VL: DIVMTQSHKFMSTSVGDRVNITCKASQDVGIAVAWYQQRPGQSPKLLIYWASKRHTGVHDRFTGTGSGTDFTLTISTVQSEDLADYFCQQYSNSLTFGAGTTLELS
notes: 4h12 heavy chain variable region; mouse IgG1 heavy chain constant region (IgG1 subclass by isotyping ELISA); 4h12 light chain variable region; light chain constant region; the light chain of the Fab is in PDB 8UKH; IgG1; raised in mice immunised with PfCelTOS; also called 4h12 mAb; 4h12 IgG; source: hybridoma culture, purified (Protein A resin)
Turning to B2, in series [2], the Kd is 41.6 µM and 57.5 µM and 56.3 µM; the koff was 0.0411 s⁻¹ and 0.0511 s⁻¹ and 0.0549 s⁻¹ and 0.0491 s⁻¹; the kon is 1100 M⁻¹ s⁻¹ and 900 M⁻¹ s⁻¹ and 1000 M⁻¹ s⁻¹. In addition, in series [3], the Kd is 65.9 nM and 68 nM and 62.3 nM; the koff was 0.00569 s⁻¹ and 0.00609 s⁻¹ and 0.00521 s⁻¹ and 0.00566 s⁻¹; the kon is 86300 M⁻¹ s⁻¹ and 89700 M⁻¹ s⁻¹ and 84700 M⁻¹ s⁻¹ and 86900 M⁻¹ s⁻¹.

B3: monoclonal antibody 4h12 (IgG) (antibody, V domains shown)
VH: B2 VH
VL: B2 VL
notes: the Fab part of the heavy chain is in PDB 8UKH; mouse IgG1; the light chain is in PDB 8UKH; IgG1; raised by immunising mice with PfCelTOS; also called 4h12 mAb; source: mouse hybridoma supernatant, purified (protein A); copies: 2 + 2
With B3, the Kd in series [4] was 65.4 nM; in series [5], 51.8 µM.

B4: P. vivax CelTOS (Sal-1, PVX_123510, residue L36-D196) (natural protein, UniProt A5JZX5 36-196, looked up)
chain: T1 chain
notes: Cell-traversal protein for ookinetes and sporozoites (CelTOS), P. vivax Sal-1, PVX_123510, residues L36-D196; also called PvCelTOS; cell-traversal protein for ookinetes and sporozoites; source: E. coli BL21(DE3), pET28, purified (Ni resin, Superdex 200 increase)
As for B4, the “stoichiometry N” value in series [6] came to 2.

B5: anti-CelTOS monoclonal antibody 7g7 (mouse IgG1) (antibody, V domains shown)
VH: EIQLQQSGPELVKPGASVKVSCKASGYSFTDYNMYWVKQSHGKSLEWIGYIDPYNGGTRYNQKFRDKATLTVDKSSSTAFMHLNSLTSEDSAVYYCARGYYYGNPLHFDVWGAGTTVTVSS
VL: QIVLTQSPAIMSASPGEKVTMTCSASSSVSYIHWYQQKSGTSPKRWIYDTSKLASGVPARFSGSGSGTSYSLTISSMEAEDAATYYCQQWISYPATFGAGTKLELK
notes: 7g7 heavy chain variable region; mouse IgG1 heavy chain constant region (IgG1 subclass by isotyping ELISA); 7g7 light chain variable region; light chain constant region; the light chain of the Fab is in PDB 8ULF; IgG1; raised in mice immunised with PvCelTOS; also called 7g7 mAb; 7g7 IgG; source: hybridoma culture, purified (Protein A resin)
Regarding B5, in series [2], the Kd was 0.0585 µM and 0.0395 µM and 0.0542 µM; the koff was 0.00309 s⁻¹ and 0.00368 s⁻¹ and 0.00227 s⁻¹ and 0.00332 s⁻¹; the kon was 60200 M⁻¹ s⁻¹ and 62300 M⁻¹ s⁻¹ and 57000 M⁻¹ s⁻¹ and 61300 M⁻¹ s⁻¹. For the same molecule, in series [3], the Kd was 470 nM and 480 nM and 500 nM; the koff is 0.00279 s⁻¹ and 0.00293 s⁻¹ and 0.00281 s⁻¹ and 0.00284 s⁻¹; the kon was 5900 M⁻¹ s⁻¹ and 6000 M⁻¹ s⁻¹ and 5600 M⁻¹ s⁻¹ and 5800 M⁻¹ s⁻¹.

B6: monoclonal antibody 7g7 (IgG) (antibody, V domains shown)
VH: B5 VH
VL: B5 VL
notes: the Fab part of the heavy chain is in PDB 8ULF; mouse IgG1; the light chain is in PDB 8ULF; IgG1; raised by immunising mice with PvCelTOS; also called 7g7 mAb; source: mouse hybridoma supernatant, purified (protein A); copies: 2 + 2
Regarding B6, the Kd in series [4] came out at 480 nM; in series [5], 0.0507 µM.
